According to the supplement of paper PMC7877785:
± gives the uncertainty stated by the source.

Assay: self-splicing fitness, log relative to wild type (ln ratio); higher = more splicing; Tetrahymena group I intron in knt gene, E. coli kanamycin selection, DiMSum; sequences stand for … in CUCUCU…GGAGGGAAAAGUUAUCAGGCAUGCACCUGGUAGCUAGUCUUUAAACCAAUAGAUUGCAUCGGUUUAAAAGGCAAGACCGUCAAAUUGCGGGAAAGGGGUCAACAGCCGUUCAGUACCAAGUCUCAGGGGAAACUUUGAGAUGGCCUUGCAAAGGGUAUGGUAAUAAGCUGACGGACAUGGUCCUAACCACGCAGCCAAGUCCUAAGUCAACAGAUCUUCUGUUGAUAUGGAUGCAGUUCACAGACUAAAUGUCGGUCGGGGAAGAUGUAUUCUUCUCAUAAGAUAUAGUCGGACCUCUCCUUAAUGGGAGCUAGCGGAUGAAGUGAUGCAACACUGGAGCCGCUGGGAACUAAUUUGUAUGCGAAAGUAUAUUGAUUAGUUUUGGAGUACUCGUGGUCG
Outline: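 A randomised library covering all eight P1ex-region intron nucleotides was built with the intron in the knt kanamycin-resistance gene on pET-22b(+) and held in E. coli BL21(DE3). Cells were grown overnight at 37°C or 30°C on LB agar, with or without 25 μg/mL kanamycin, plus 100 μg/mL carbenicillin, 50 μM IPTG and 0.2% rhamnose, and pooled colonies were amplicon-sequenced on an Illumina HiSeq 2500. DiMSum fitness is the error-weighted combination of wild-type-normalised replicate fold changes, kanamycin versus none.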

Sequence	self-splicing fitness (ln) (30 °C)	self-splicing fitness (ln) (37 °C)
GUGCAGCAAUAUUACGAUAA	-2.55 ± 0.16	-1.04 ± 0.13
CCUCAGCAAUAUUACGAGUA	-3.06 ± 0.21	-2.38 ± 0.21
UGCUAGCAAUAUUACGAAGG	-2.13 ± 0.16	-0.838 ± 0.34
GUGAAGCAAUAUUACGGAAU	-1.06 ± 0.18	-0.308 ± 0.18
GACUAGCAAUAUUACGAUGG	-3.49 ± 0.13	-2.24 ± 0.12
CCCGAGCAAUAUUACGGUAA	-3.81 ± 0.26	-1.46 ± 0.16
UACUAGCAAUAUUACGUACG	-2.76 ± 0.1	-1.31 ± 0.091
CGCUAGCAAUAUUACGGCUU	-0.961 ± 0.081	-0.559 ± 0.1
CCCGAGCAAUAUUACGCGCC		-1.22 ± 0.35
UACCAGCAAUAUUACGACUC	-2.5 ± 0.18	-1.65 ± 0.2
UAAGAGCAAUAUUACGCCCA	-2.62 ± 0.26	-2.09 ± 0.41
CUGCAGCAAUAUUACGUACA	-2.96 ± 0.29	-1.43 ± 0.19
GUUAAGCAAUAUUACGUGCA	-1.44 ± 0.1	-0.144 ± 0.11
UACCAGCAAUAUUACGAUGC	-3.19 ± 0.16	-3.07 ± 0.25
UAAGAGCAAUAUUACGAGGU	-3.48 ± 0.23	-2.56 ± 0.27
GGCCAGCAAUAUUACGGGCA	-1.06 ± 0.07	-0.314 ± 0.079
UGGGAGCAAUAUUACGAUUC	-4.38 ± 0.27	-2.41 ± 0.21
UCGCAGCAAUAUUACGUUCC	-2.7 ± 0.23	
AUUUAGCAAUAUUACGUUGC	-3.26 ± 0.41	
AACAAGCAAUAUUACGAAUG	-3 ± 0.14	-1.97 ± 0.12
GGAUAGCAAUAUUACGAGUC	-2.17 ± 0.26	-1.06 ± 0.22
UGGUAGCAAUAUUACGGUUA	-0.381 ± 0.12	0.439 ± 0.15
UGGAAGCAAUAUUACGGCCA	-0.874 ± 0.21	-0.244 ± 0.2
UCUUAGCAAUAUUACGUAGG	-1.26 ± 0.11	0.0819 ± 0.16
ACUUAGCAAUAUUACGAGUG	-1.17 ± 0.12	-1.58 ± 0.13

Sequence	self-splicing fitness (ln) (30 °C)	self-splicing fitness (ln) (37 °C)
AGUCAGCAAUAUUACGAGAG	-2.88 ± 0.2	-1.67 ± 0.18
UAAAAGCAAUAUUACGUAGA	-2.7 ± 0.12	-1.45 ± 0.14
CGUCAGCAAUAUUACGGAGG	-1.93 ± 0.1	-1.57 ± 0.16
UUGAAGCAAUAUUACGCAAG	-0.402 ± 0.099	0.251 ± 0.12
GCUUAGCAAUAUUACGGCUG	-3.18 ± 0.28	-2.21 ± 0.28
AGAAAGCAAUAUUACGACGG	-2.82 ± 0.24	-0.965 ± 0.29
UCUGAGCAAUAUUACGAUAG	-3.28 ± 0.18	-1.93 ± 0.18
ACUCAGCAAUAUUACGCGAG	-2.93 ± 0.2	-1.21 ± 0.17
ACCCAGCAAUAUUACGAGCU	-4.29 ± 0.21	-2.17 ± 0.14
UCCUAGCAAUAUUACGAAUG		-2.76 ± 0.44
ACCUAGCAAUAUUACGGUUG	-3.37 ± 0.13	-2.71 ± 0.17
GAGUAGCAAUAUUACGCUAG	-2.38 ± 0.18	-0.481 ± 0.18
AACGAGCAAUAUUACGUCGC	-2.69 ± 0.36	1.3 ± 0.3
CUCCAGCAAUAUUACGUGGC	-3.82 ± 0.15	-3.4 ± 0.24
UUGAAGCAAUAUUACGUACU	-0.493 ± 0.088	-0.0917 ± 0.11
CUAAAGCAAUAUUACGGAAG	-0.274 ± 0.062	0.0341 ± 0.083
UGCGAGCAAUAUUACGAUGG	-3.43 ± 0.2	-1.93 ± 0.17
UUAGAGCAAUAUUACGUGCU		-1.79 ± 0.4
UCUGAGCAAUAUUACGGUGU	-2.79 ± 0.19	-1.84 ± 0.28
UGGUAGCAAUAUUACGACUA	-0.227 ± 0.16	-0.296 ± 0.2
UAUAAGCAAUAUUACGGAUG	-0.677 ± 0.055	-0.286 ± 0.083
GCUGAGCAAUAUUACGUGUA	-2.4 ± 0.21	-3.02 ± 0.32
CACUAGCAAUAUUACGUAGC	-3.47 ± 0.19	-2.94 ± 0.23
CUUUAGCAAUAUUACGACGA		-1.82 ± 0.24
